{
  "source": "paper PMC8934638",
  "about": "“H3K36 methylation and DNA-binding both promote Ioc4 recruitment and Isw1b remodeler function”",
  "key": {"[1]": {"biological_target": "T1, Ioc4 PWWP domain (Saccharomyces cerevisiae, UniProt Q04213 1-178)", "T1 sequence": "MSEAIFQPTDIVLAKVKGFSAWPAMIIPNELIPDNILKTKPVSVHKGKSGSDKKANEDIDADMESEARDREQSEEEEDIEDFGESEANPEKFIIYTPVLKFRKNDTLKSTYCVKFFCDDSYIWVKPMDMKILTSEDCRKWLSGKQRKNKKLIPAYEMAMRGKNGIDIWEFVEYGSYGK", "assay": "EMSA", "details": "5% native PAGE (37.5:1) in 0.4x TBE, 2% glycerol, binding buffer, pH and temperature not given (as in …)"}, "[2]": {"biological_target": "T2, Ioc4 full-length (Saccharomyces cerevisiae, UniProt Q04213 1-475)", "T2 sequence": "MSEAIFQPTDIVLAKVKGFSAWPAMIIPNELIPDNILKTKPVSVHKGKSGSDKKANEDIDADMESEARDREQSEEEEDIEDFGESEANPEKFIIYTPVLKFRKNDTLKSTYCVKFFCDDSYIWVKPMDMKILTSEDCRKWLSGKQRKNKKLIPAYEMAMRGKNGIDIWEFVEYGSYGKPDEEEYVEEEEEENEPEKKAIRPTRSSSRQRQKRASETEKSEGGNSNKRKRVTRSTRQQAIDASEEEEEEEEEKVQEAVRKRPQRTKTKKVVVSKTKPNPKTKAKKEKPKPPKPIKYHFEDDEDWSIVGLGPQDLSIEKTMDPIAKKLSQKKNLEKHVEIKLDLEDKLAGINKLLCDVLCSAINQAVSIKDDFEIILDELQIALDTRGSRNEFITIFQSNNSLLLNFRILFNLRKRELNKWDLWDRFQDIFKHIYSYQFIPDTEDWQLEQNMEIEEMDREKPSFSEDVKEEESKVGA", "assay": "EMSA", "details": "5% native PAGE (37.5:1) in 0.4x TBE, 2% glycerol, binding buffer, pH and temperature not given (as in …)"}, "[3]": {"tested_on": "Isw1b complex (Isw1, Ioc2, Ioc4) (Saccharomyces cerevisiae)", "assay": "EMSA", "details": "peptide-ligated H3 (T45C), 5% native PAGE (37.5:1) in 0.4x TBE, 2% glycerol, binding buffer, pH and temperature not given (as in …)"}, "[4]": {"biological_target": "T2, Ioc4 full-length", "assay": "EMSA; EMSA; 15 fmol NCP (30 fmol unmodified NCP) per reaction; 5% native PAGE (37.5:1) in 0.4x TBE, 2% glycerol; binding buffer, pH and temperature not given (as in cited work)", "details": "protein: recombinant; tags: N-terminal 6xHis-MBP; label: Cy5 on sense strand; blunt"}, "[5]": {"biological_target": "T1, Ioc4 PWWP domain", "assay": "EMSA; EMSA; 15 fmol NCP (30 fmol unmodified NCP) per reaction; 5% native PAGE (37.5:1) in 0.4x TBE, 2% glycerol; binding buffer, pH and temperature not given (as in cited work)", "details": "protein: recombinant; tags: N-terminal 6xHis; label: Cy5 on sense strand; blunt"}, "[6]": {"biological_target": "T1, Ioc4 PWWP domain", "assay": "EMSA; bound equally to the AT-rich substrate; EMSA; 15 fmol NCP (30 fmol unmodified NCP) per reaction; 5% native PAGE (37.5:1) in 0.4x TBE, 2% glycerol; binding buffer, pH and temperature not given (as in cited work)", "details": "protein: recombinant; tags: N-terminal 6xHis; label: Cy5 on sense strand; blunt"}, "[7]": {"details": "15 fmol NCP (30 fmol unmodified NCP) per reaction"}, "[8]": {"details": "peptide-ligated H3 (T45C), K36me0, 15 fmol NCP (30 fmol unmodified NCP) per reaction"}, "[9]": {"details": "peptide-ligated H3 (T45C), K36me3, 15 fmol NCP (30 fmol unmodified NCP) per reaction"}},
  "data": [
    {"molecule": "NCP unmodified, 147 bp 601", "values": [
      {"measurement": "Kd", "setting": "[1]; unmodified histones, 15 fmol NCP (30 fmol unmodified NCP) per reaction", "value": 450, "unit": "nM"}
    ]},
    {"molecule": "RNA:DNA hybrid", "values": [
      {"measurement": "Kd", "setting": "[2]; [7]", "value": 55, "unit": "nM"},
      {"measurement": "Kd", "setting": "[1]; [7]", "value": 760, "unit": "nM"}
    ]},
    {"molecule": "NCP H3K36me0, 147 bp 601", "values": [
      {"measurement": "Kd", "setting": "[2]; [8]", "value": 11, "unit": "nM"},
      {"measurement": "Kd", "setting": "[1]; [8]", "value": 400, "unit": "nM"},
      {"measurement": "Kd", "setting": "[3]; K36me0, 15 fmol NCP (30 fmol unmodified NCP) per reaction", "value": 57.3, "unit": "nM"}
    ]},
    {"molecule": "NCP H3K36me3, 147 bp 601", "values": [
      {"measurement": "Kd", "setting": "[2]; [9]", "value": 6.7, "unit": "nM"},
      {"measurement": "Kd", "setting": "[1]; [9]", "value": 120, "unit": "nM"},
      {"measurement": "Kd", "setting": "[3]; K36me3, 15 fmol NCP (30 fmol unmodified NCP) per reaction", "value": 4.8, "unit": "nM"}
    ]},
    {"molecule": "dsDNA 30 bp (601-derived EMSA probe) (dsDNA) DNA 1: GGCAAGGTCGCTGTTCAATACATGCACAGG DNA 2: CCTGTGCATGTATTGAACAGCGACCTTGCC", "values": [
      {"measurement": "Kd", "setting": "[4]", "value": 34, "unit": "nM"},
      {"measurement": "Kd", "setting": "[5]", "value": 810, "unit": "nM"}
    ]},
    {"molecule": "dsRNA 30 bp (AT rich) (dsRNA) RNA 1: GGCAAGGUCGCUGUUCAAUACAUGCACAGG RNA 2: CCUGUGCAUGUAUUGAACAGCGACCUUGCC", "values": [
      {"measurement": "Kd", "setting": "[4]", "value": 56, "unit": "nM"},
      {"measurement": "Kd", "setting": "[5]", "value": 1800, "unit": "nM"}
    ]},
    {"molecule": "dsRNA 25 bp GC rich (dsRNA) RNA 1: CCCGGUGCCGAGGCCGCUCAAUUGG RNA 2: CCAAUUGAGCGGCCUCGGCACCGGG", "values": [
      {"measurement": "binding result", "setting": "[6]", "value": "binds"}
    ]}
  ]
}
